Target: 野生株SARS-COV-2 RBD蛋白(Ag27) (SARS-COV-2 野生株, UniProt P0DTC2 319-541)

B1: R1463 (VHH)
VHH: QVQLVESGGGVVQPGGSLRLSCTCSRCTFNWDGMGWFRQAPGKGLEFVATISWSGQEPAYADSVKGRFTISRDNSKNTLYLQMTSLRAEDTAVYYCAAAQYTGASYSILRDQVGYDYWGQGTLVTVSS
notes: also called RX017 VHH-His标签; 对照
IC50: 0.0359 nM

B2: R1475 (VHH, not shown: small tags and cut ends)
VHH 1: B1 VHH
VHH 2: B1 VHH
notes: also called 人源化多价结合蛋白 R1475; VHH-Linker-VHH-His标签
IC50: 0.0206 nM

B3: R1464 (VHH, not shown: small tags and cut ends)
chain (part 1 of 3): HHHHHHQVQLVESGGGVVQPGGSLRLSCTCSRCTFNWDGMGWFRQAPGKGLEFVATISWSGQEPAYADSVKGRFTISRDNSKNTLYLQMTSLRAEDTAVYYCAAAQYTGASYSILRDQVGYDYWGQGTLVTVSS
chain (part 2 of 3): B1 VHH
chain (part 3 of 3): B1 VHH
notes: also called 人源化多价结合蛋白 R1464; His标签-VHH-Linker-VHH-Linker-VHH
IC50: 0.0272 nM
